To fix the notation:
T1: Human IL13Rα2 (human, UniProt Q14627 27-343, limits assumed)
T1 construct: also called human recombinant IL13Rα2; Human IL13Ra2
T1 sequence (looked up): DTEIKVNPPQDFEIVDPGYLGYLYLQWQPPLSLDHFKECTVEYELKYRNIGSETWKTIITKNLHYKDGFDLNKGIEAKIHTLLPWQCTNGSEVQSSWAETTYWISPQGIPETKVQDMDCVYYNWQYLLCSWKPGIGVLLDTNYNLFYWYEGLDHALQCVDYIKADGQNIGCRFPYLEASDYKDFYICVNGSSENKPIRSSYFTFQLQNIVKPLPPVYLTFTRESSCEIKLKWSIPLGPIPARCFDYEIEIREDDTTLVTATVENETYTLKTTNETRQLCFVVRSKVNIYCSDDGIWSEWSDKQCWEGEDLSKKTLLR

B1: Humanized antibody VH2 + VL2 (antibody, human IgG1, kappa, V domains shown)
VH: QVQLVQSGAEVKKPGASVKVSCKASGYTFSNYLMNWVRQAPGQRLEWMGRIDPYDGDIDYNQNFKDRVTITRDTSASTAYMELSSLRSEDTAVYYCARGYGTAYGVDYWGQGTLVTVSS
VL: DIQMTQSPSSLSASVGDRVTITCRASESVDNYGISFMNWYQQKPGKAPKLLIYAASRQGSGVPSRFSGSGSGTDFTLTISSLQPEDFATYYCQQSKEVPWTFGGGTKLEIKR
B2: Humanized antibody VH2 + VL3 (antibody, human IgG1, kappa, V domains shown)
VH: QVQLVQSGAEVKKPGASVKVSCKASGYTFSNYLMNWVRQAPGQRLEWMGRIDPYDGDIDYNQNFKDRVTITRDTSASTAYMELSSLRSEDTAVYYCARGYGTAYGVDYWGQGTLVTVSS
VL: EIVLTQSPATLSLSPGERATLSCRASESVDNYGISFMNWYQQKPGQAPRLLIYAASRQGSGIPARFSGSGSGTDFTLTISSLEPEDFAVYYCQQSKEVPWTFGGGTKLEIKR
notes: also called U3621EI120 VH2+VL3
B3: Humanized antibody VH2 + VL4 (antibody, human IgG1, kappa, V domains shown)
VH: QVQLVQSGAEVKKPGASVKVSCKASGYTFSNYLMNWVRQAPGQRLEWMGRIDPYDGDIDYNQNFKDRVTITRDTSASTAYMELSSLRSEDTAVYYCARGYGTAYGVDYWGQGTLVTVSS
VL: EIVMTQSPATLSVSPGERATLSCRASESVDNYGISFMNWYQQKPGQAPRLLIYAASRQGSGIPARFSGSGSGTEFTLTISSLQSEDFAVYYCQQSKEVPWTFGGGTKLEIKR
B4: Humanized antibody VH3 + VL3 (antibody, human IgG1, kappa, V domains shown)
VH: QVQLVQSGAEVKKPGASVKVSCKASGYTFSNYLMNWVRQAPGQGLEWMGRIDPYDGDIDYNQNFKDRVTMTRDTSTSTVYMELSSLRSEDTAVYYCARGYGTAYGVDYWGQGTLVTVSS
VL: EIVLTQSPATLSLSPGERATLSCRASESVDNYGISFMNWYQQKPGQAPRLLIYAASRQGSGIPARFSGSGSGTDFTLTISSLEPEDFAVYYCQQSKEVPWTFGGGTKLEIKR
B5: Humanized antibody VH3 + VL1 (antibody, human IgG1, kappa, V domains shown)
VH: QVQLVQSGAEVKKPGASVKVSCKASGYTFSNYLMNWVRQAPGQGLEWMGRIDPYDGDIDYNQNFKDRVTMTRDTSTSTVYMELSSLRSEDTAVYYCARGYGTAYGVDYWGQGTLVTVSS
VL: DIVMTQSPDSLAVSLGERATINCRASESVDNYGISFMNWYQQKPGQPPKLLIYAASRQGSGVPDRFSGSGSGTDFTLTISSLQAEDVAVYYCQQSKEVPWTFGGGTKLEIKR
B6: Humanized antibody VH1 + VL3 (antibody, human IgG1, kappa, V domains shown)
VH: QVQLVQSGAEVKKPGSSVKVSCKASGYTFSNYLMNWVRQAPGQGLEWMGRIDPYDGDIDYNQNFKDRVTITADKSTSTAYMELSSLRSEDTAVYYCARGYGTAYGVDYWGQGTLVTVSS
VL: EIVLTQSPATLSLSPGERATLSCRASESVDNYGISFMNWYQQKPGQAPRLLIYAASRQGSGIPARFSGSGSGTDFTLTISSLEPEDFAVYYCQQSKEVPWTFGGGTKLEIKR
B7: Humanized antibody VH3 + VL4 (antibody, human IgG1, kappa, V domains shown)
VH: QVQLVQSGAEVKKPGASVKVSCKASGYTFSNYLMNWVRQAPGQGLEWMGRIDPYDGDIDYNQNFKDRVTMTRDTSTSTVYMELSSLRSEDTAVYYCARGYGTAYGVDYWGQGTLVTVSS
VL: EIVMTQSPATLSVSPGERATLSCRASESVDNYGISFMNWYQQKPGQAPRLLIYAASRQGSGIPARFSGSGSGTEFTLTISSLQSEDFAVYYCQQSKEVPWTFGGGTKLEIKR
B8: Humanized antibody VH4 + VL3 (antibody, human IgG1, kappa, V domains shown)
VH: QVQLVQSGAEVKKPGASVKVSCKASGYTFSNYLMNWVRQATGQGLEWMGRIDPYDGDIDYNQNFKDRVTITRNTSISTAYMELSSLRSEDTAVYYCARGYGTAYGVDYWGQGTLVTVSS
VL: EIVLTQSPATLSLSPGERATLSCRASESVDNYGISFMNWYQQKPGQAPRLLIYAASRQGSGIPARFSGSGSGTDFTLTISSLEPEDFAVYYCQQSKEVPWTFGGGTKLEIKR
B9: Humanized antibody VH2 + VL1 (antibody, human IgG1, kappa, V domains shown)
VH: QVQLVQSGAEVKKPGASVKVSCKASGYTFSNYLMNWVRQAPGQRLEWMGRIDPYDGDIDYNQNFKDRVTITRDTSASTAYMELSSLRSEDTAVYYCARGYGTAYGVDYWGQGTLVTVSS
VL: DIVMTQSPDSLAVSLGERATINCRASESVDNYGISFMNWYQQKPGQPPKLLIYAASRQGSGVPDRFSGSGSGTDFTLTISSLQAEDVAVYYCQQSKEVPWTFGGGTKLEIKR
B10: Humanized antibody VH1 + VL2 (antibody, human IgG1, kappa, V domains shown)
VH: QVQLVQSGAEVKKPGSSVKVSCKASGYTFSNYLMNWVRQAPGQGLEWMGRIDPYDGDIDYNQNFKDRVTITADKSTSTAYMELSSLRSEDTAVYYCARGYGTAYGVDYWGQGTLVTVSS
VL: DIQMTQSPSSLSASVGDRVTITCRASESVDNYGISFMNWYQQKPGKAPKLLIYAASRQGSGVPSRFSGSGSGTDFTLTISSLQPEDFATYYCQQSKEVPWTFGGGTKLEIKR
B11: Humanized antibody VH4 + VL1 (antibody, human IgG1, kappa, V domains shown)
VH: QVQLVQSGAEVKKPGASVKVSCKASGYTFSNYLMNWVRQATGQGLEWMGRIDPYDGDIDYNQNFKDRVTITRNTSISTAYMELSSLRSEDTAVYYCARGYGTAYGVDYWGQGTLVTVSS
VL: DIVMTQSPDSLAVSLGERATINCRASESVDNYGISFMNWYQQKPGQPPKLLIYAASRQGSGVPDRFSGSGSGTDFTLTISSLQAEDVAVYYCQQSKEVPWTFGGGTKLEIKR
B12: Humanized antibody VH3 + VL2 (antibody, human IgG1, kappa, V domains shown)
VH: QVQLVQSGAEVKKPGASVKVSCKASGYTFSNYLMNWVRQAPGQGLEWMGRIDPYDGDIDYNQNFKDRVTMTRDTSTSTVYMELSSLRSEDTAVYYCARGYGTAYGVDYWGQGTLVTVSS
VL: DIQMTQSPSSLSASVGDRVTITCRASESVDNYGISFMNWYQQKPGKAPKLLIYAASRQGSGVPSRFSGSGSGTDFTLTISSLQPEDFATYYCQQSKEVPWTFGGGTKLEIKR
B13: Humanized antibody VH4 + VL2 (antibody, human IgG1, kappa, V domains shown)
VH: QVQLVQSGAEVKKPGASVKVSCKASGYTFSNYLMNWVRQATGQGLEWMGRIDPYDGDIDYNQNFKDRVTITRNTSISTAYMELSSLRSEDTAVYYCARGYGTAYGVDYWGQGTLVTVSS
VL: DIQMTQSPSSLSASVGDRVTITCRASESVDNYGISFMNWYQQKPGKAPKLLIYAASRQGSGVPSRFSGSGSGTDFTLTISSLQPEDFATYYCQQSKEVPWTFGGGTKLEIKR
B14: Humanized antibody VH1 + VL4 (antibody, human IgG1, kappa, V domains shown)
VH: QVQLVQSGAEVKKPGSSVKVSCKASGYTFSNYLMNWVRQAPGQGLEWMGRIDPYDGDIDYNQNFKDRVTITADKSTSTAYMELSSLRSEDTAVYYCARGYGTAYGVDYWGQGTLVTVSS
VL: EIVMTQSPATLSVSPGERATLSCRASESVDNYGISFMNWYQQKPGQAPRLLIYAASRQGSGIPARFSGSGSGTEFTLTISSLQSEDFAVYYCQQSKEVPWTFGGGTKLEIKR
notes: also called U3621EI120 VH1+VL4
B15: Humanized antibody VH4 + VL4 (antibody, human IgG1, kappa, V domains shown)
VH: QVQLVQSGAEVKKPGASVKVSCKASGYTFSNYLMNWVRQATGQGLEWMGRIDPYDGDIDYNQNFKDRVTITRNTSISTAYMELSSLRSEDTAVYYCARGYGTAYGVDYWGQGTLVTVSS
VL: EIVMTQSPATLSVSPGERATLSCRASESVDNYGISFMNWYQQKPGQAPRLLIYAASRQGSGIPARFSGSGSGTEFTLTISSLQSEDFAVYYCQQSKEVPWTFGGGTKLEIKR
B16: Humanized antibody VH1 D52E-VL1 (antibody, human IgG1, kappa, V domains shown)
VH: QVQLVQSGAEVKKPGSSVKVSCKASGYTFSNYLMNWVRQAPGQGLEWMGRIEPYDGDIDYNQNFKDRVTITADKSTSTAYMELSSLRSEDTAVYYCARGYGTAYGVDYWGQGTLVTVSS
VL: DIVMTQSPDSLAVSLGERATINCRASESVDNYGISFMNWYQQKPGQPPKLLIYAASRQGSGVPDRFSGSGSGTDFTLTISSLQAEDVAVYYCQQSKEVPWTFGGGTKLEIKR
notes: also called VH1 MD52E-VL1
B17: Humanized antibody VH1 M34A-VL1 (antibody, human IgG1, kappa, V domains shown)
VH: QVQLVQSGAEVKKPGSSVKVSCKASGYTFSNYLANWVRQAPGQGLEWMGRIDPYDGDIDYNQNFKDRVTITADKSTSTAYMELSSLRSEDTAVYYCARGYGTAYGVDYWGQGTLVTVSS
VL: DIVMTQSPDSLAVSLGERATINCRASESVDNYGISFMNWYQQKPGQPPKLLIYAASRQGSGVPDRFSGSGSGTDFTLTISSLQAEDVAVYYCQQSKEVPWTFGGGTKLEIKR
notes: Antibody purified on protein A

This note sets out measurements from patent US12703750 (NORTHWESTERN UNIVERSITY, dated 2026).

As usually defined, the Kd is a measure of binding affinity in units of concentration. Higher therefore signals lower affinity. Usually koff stands for a measure of how fast the partners let go of each other. Lower therefore signals a long-lived complex. By kon is commonly meant the rate constant with which the complex forms. By EC50 (read off the curve) is commonly meant the midpoint of the concentration-response curve.

In the first experiment the target is T1, Human IL13Rα2. The experiment in a line: SPR Biacore 8K affinity ranking, antibody supernatant Fc-captured, 100 nM IL13Rα2 analyte. Background: Surface plasmon resonance follows binding to a sensor surface in real time, without labels.
On to B1, for which the dissociation constant Kd stood at 857 pM, the off-rate (koff) stood at 0.000555 s⁻¹ and the on-rate (kon) was 648000 M⁻¹ s⁻¹.

The molecule B2 displayed a dissociation constant Kd of 1170 pM, a koff of 0.000761 s⁻¹ and a kon of 649000 M⁻¹ s⁻¹.

In the case of B3, binding was put at a Kd of 1350 pM, the koff is 0.000748 s⁻¹ and the kon worked out at 555000 M⁻¹ s⁻¹.

The molecule B4 gave a Kd of 1130 pM, a koff of 0.000702 s⁻¹ and a kon of 620000 M⁻¹ s⁻¹.

Molecule B5 had a Kd of 661 pM, an off-rate (koff) of 0.000595 s⁻¹ and an association rate constant (kon) of 901000 M⁻¹ s⁻¹.

As to B6, the dissociation constant Kd came to 900 pM, the koff amounted to 0.000463 s⁻¹ and the kon is 514000 M⁻¹ s⁻¹.

Take B7: the Kd amounted to 984 pM, the koff was found to be 0.000615 s⁻¹ and the kon stood at 625000 M⁻¹ s⁻¹.

With B8, the Kd was 877 pM, the dissociation rate constant (koff) stood at 0.000675 s⁻¹ and the association rate constant (kon) worked out at 769000 M⁻¹ s⁻¹.

The molecule B9 showed a Kd of 704 pM, a koff of 0.000417 s⁻¹ and a kon of 593000 M⁻¹ s⁻¹.

B10 yielded a Kd of 758 pM, a dissociation rate constant (koff) of 0.000312 s⁻¹ and a kon of 412000 M⁻¹ s⁻¹.

On to B11, for which the affinity, expressed as Kd, was 727 pM; the dissociation rate constant (koff) was found to be 0.000424 s⁻¹; the on-rate constant (kon) came out at 583000 M⁻¹ s⁻¹.

B12 gave a Kd of 698 pM, a koff of 0.000595 s⁻¹ and an on-rate constant (kon) of 852000 M⁻¹ s⁻¹.

As to B13, the Kd was 597 pM, the koff came out at 0.000445 s⁻¹ and the kon came out at 746000 M⁻¹ s⁻¹.

In turn, B14 registered a Kd of 599 pM, a koff of 0.000269 s⁻¹ and an on-rate constant (kon) of 449000 M⁻¹ s⁻¹.

B15 had a Kd of 594 pM, a dissociation rate constant (koff) of 0.000501 s⁻¹ and a kon of 844000 M⁻¹ s⁻¹.

The next experiment has as its target T1, Human IL13Rα2. The experiment in a line: plate ELISA on human recombinant IL13Rα2, OD405, N=4. (In general: An ELISA detects its analyte on a solid surface through an enzyme-linked reagent.)
For B16, the “EC50 (read off the curve)” value was around 0.04 µg/mL.

For the molecule B17, the “EC50 (read off the curve)” value was around 0.03 µg/mL.

For another experiment, the target named is T1, Human IL13Rα2. Briefly: SPR Biacore T200, purified IgG Fc-captured, IL13Rα2 as analyte.
B2 gave a Kd of 513 pM, an off-rate constant (koff) of 0.00042 s⁻¹ and an on-rate (kon) of 820000 M⁻¹ s⁻¹.

For B14, the affinity, expressed as Kd, was 297 pM; the koff is 0.00022 s⁻¹; the association rate constant (kon) was determined as 741000 M⁻¹ s⁻¹.
